Source: patent US20200199244A1 (published 2020)

Target: human CD40 (human, UniProt P25942 21-277)
Experiment: cell-based or functional assay

Sequence of human CD40 (P25942 21-277 limits assumed): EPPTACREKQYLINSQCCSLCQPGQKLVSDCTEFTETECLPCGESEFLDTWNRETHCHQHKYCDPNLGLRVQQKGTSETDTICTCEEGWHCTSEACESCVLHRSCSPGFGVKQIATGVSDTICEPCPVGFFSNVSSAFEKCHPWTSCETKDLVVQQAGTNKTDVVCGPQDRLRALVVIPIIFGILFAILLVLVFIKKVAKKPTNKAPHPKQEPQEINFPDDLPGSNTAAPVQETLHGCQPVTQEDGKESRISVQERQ

Binder | hIZCD40L-driven Human B Cell Proliferation EC50 [nM] | CHO-hCD40L-driven Human B Cell Proliferation EC50 [nM] | T-B cell MLR EC50 [nM] | CHO-hCD40L-driven DC Activation IL-12 EC50 [nM]
BMS3h-38-237 (other) VH: EVQLLASGGGLVQPGGSLRLSCAASGFTFEEEEMIWVRQAPGKGLEWVSAISRGGWSTYYADSVKGRFTISRDNSKNTLYLQMNSLRAEDTAVYYCGKEPFRYDYWGQGTLVTVSS | 0.4 | – | – | –
BMS3h-38-238 (other) VH: EVQLLASGGGLVQPGGSLRLSCAASGFTFEEEEMIWVRQAPGKGLEWVSAISRSGYSTYYADSVKGRFTISRDNSKNTLYLQMNSLRAEDTAVYYCGKEPFRYDYWGQGTLVTVSS | 0.7 | – | – | –
BMS3h-38-3 (other) VH: EVQLLASGGGLVQPGGSLRLSCAASGFTFEEEEMIWVRQAPGKGLEWISAISGSGGSTYYADSVKGRFTISRDNSKNTLYLQMNSLRAEDTAVYYCGKEPFRFDYWGQGTLVTVSS | 10 | – | – | –
BMS3h-41-1 (other) VH: EVQLLESGEGLVQPGGSLRLSCAASGFTFTEHEMIWVRQAPGKGLEWVSSISGNGANTYYADSVKGRFTISRDNSKNTLYLQMNSLRPEDTAVYYCAKEPLRFDYWGQGTLVTVSS | 104 | – | – | –
BMS3h-41-13 (other) VH: EVQLLESAGGLVQPGGSLRLSCAASGFTFAEYEMIWVRQAPGKGLEWVSSISGNGANTYYADSVKGRFTISRDNSKNTLYLQMNSLRAEDTAVYYCAKEPLRFDYWGQGALVTVSS | 208 | – | – | –
BMS3h-43-1 (other) VH: EVQLLESGGGLVQPGGSLRLSCTASGFTFNMYEMSWVRQAPGKGLEWVSGISRRGFTTYYADSVKGRFTISRDNSKNTLYLQMNSLRAEDTAVYYCAKEPITYDLRYARFDYSGQGTLVTVSS | 53 | – | – | –
BMS3h-43-3 (other) VH: EVQLLESGGGLVQPGGSLRLSCTASGFTFNMYEMSWVRQAPGKGLEWVSGISRRGFTTYYADSVKGRFTISRDNFKNTLYLQMNSLRAEDTAVYYCAKEPITYDMRYARFDYGGQGTLVTVSS | 87 | – | – | –
BMS3h-56-1 (other) VH: EVQLLESGGGLVQPGGSLRLSCAASGFTFRDYEMWWVRQAPGKGLERVSAINPQGTRTYYADSVKGRFTISRDNSKNTLYLQMNSLRAEDTAVYYCAKLPFTFEDWGQGTLVTVSS | 7 | – | – | –
BMS3h-56-2 (other) VH: EVQLLESGGGLVQPGGSLRLSCAASGFTFRDYEMWWVRQAPGKGLERVSAINPQGTRTYYADSVKGRFTISRDNSKNTLYLQMNSLRAEDTAVYYCAKLPFTFDDWGQGTLVTVSS | 3 | 326 | 276 | –
BMS3h-56-202 (other) VH: EVQLLESGGGLVQPGGSLRLSCAASGFTFRDYEMWWVRQAPGKGLERVSAINPQGTRTYYADSVKGRFTISRDNSKNTLYLQMNSLRAEDTAVYYCAKLPTYFSDRGQGTLVTVSS | 0.6 | 39 | 50 | 2.9
BMS3h-56-203 (other) VH: EVQLLESGGGLVQPGGSLRLSCAASGFTFRDYEMWWVRQAPGKGLERVSAINPQGTRTYYADSVKGRFTISRDNSKNTLYLQMNSLRAEDTAVYYCAKLPFFFEEWGQGTLVTVSS | 0.45 | 51 | 52 | 3.7
BMS3h-56-206 (other) VH: EVQLLESGGGLVQPGGSLRLSCAASGFTFRDYEMWWVRQAPGKGLERVSAINPQGTRTYYADSVKGRFTISRDNSKNTLYLQMNSLRAEDTAVYHCAKLPMFFEDWGQGTLVTVSN | 0.1 | 6 | 5.25 | 0.7
BMS3h-56-217 (other) VH: EVQLLESGGGLVQPGGSLRLSCAASGFTFRDYEMWWVRQAPGKGLERVSAINPWGSLTYYADSVKGRFTISRDNSKNTLYLQMNSLRAEDTAVYYCAKLPFTFEDWGQGTLVTVSS | 0.1 | 13 | 16 | 9.4
BMS3h-56-224 (other) VH: EVQLLESGGGLVQPGGSLRLSCAASGFTFRDYEMWWVRQAPGKGLERVSAINPWGQLTYYADSVKGRFTISRDNSKNTLYLQMNSLRAEDTAVYYCAKLPFTFEDWGQGTLVTVSS | 0.5 | 26 | 47 | 18
BMS3h-56-232 (other) VH: EVQLLESGGGLVQPGGSLRLSCAASGFTFRDYEMWWVRQAPGKGLERVSAINPWGSHTYYADSVKGRFTISRDNSKNTLYLQMNSLRAEDTAVYYCAKLPFTFDDWGQGTLVTVSS | 0.27 | 37 | 42 | 7.3
BMS3h-56-243 (other) VH: EVQLLESGGGLVQPGGSLRLSCAASGFTFRDYEMWWVRQAPGKGLERVSAINPWGGFTYYADSVKGRFTISRDNSKNTLYLQMNSLRAEDTAVYYCAKLPFTFEDWGQGTLVTVSS | 0.15 | 13.5 | 14.2 | 8.8
BMS3h-56-246 (other) VH: EVQLLESGGGLVQPGGSLRLSCAASGFTFRDYEMWWVRQAPGKGLERVSAINPWGTLTYYADSVKGRFTISRDNSKNTLYLQMNSLRAEDTAVYYCAKLPFTFEDWGQGTLVTVSS | 0.24 | 34 | 23.8 | 23.2
BMS3h-56-248 (other) VH: EVQLLESGGGLVQPGGSLRLSCAASGFTFRDYEMWWVRQAPGKGLERVSAINPYGNLTYYADSVKGRFTISRDNSKNTLYLQMNSLRAEDTAVYYCAKLPFTFDDWGQGTLVTVSS | 0.36 | – | – | –
BMS3h-56-253 (other) VH: EVQLLESGGGLVQPGGSLRLSCAASGFTFRDYEMWWVRQAPGKGLERVSAINPAGGYTYYADSVKGRFTISRDNSKNTLYLQMNSLRAEDTAVYHCAKLPFTFEDWGQGTLVTVSS | 0.4 | – | – | –

Results, then the binder that gave them:

hIZCD40L-driven Human B Cell Proliferation EC50 [nM] | CHO-hCD40L-driven Human B Cell Proliferation EC50 [nM] | T-B cell MLR EC50 [nM] | CHO-hCD40L-driven DC Activation IL-12 EC50 [nM] | Binder
0.4 | – | – | – | BMS3h-38-235 (other) VH: EVQLLASGGGLVQPGGSLRLSCAASGFTFEEEEMIWVRQAPGKGLEWVSAISRNGYSTYYADSVKGRFTISRDNSKNTLYLQMNSLRAEDTAVYYCGKEPFRYDYWGQGTLVTVSS
47 | – | – | – | BMS3h-41-2 (other) VH: EVQLLESGGGLVQPGGSLRLSCAASGSTFTEYEMIWVRQAPGKGLEWISSISGNGANTYYADSVKGRFTISRDNSKNTLYLQMNSLRAEDTAVYFCAKEPLRFDYRGQGTLVTVSS
148 | – | – | – | BMS3h-41-9 (other) VH: EVQLLEPGGGLVQPGGSLRLSCAASGFTFTEYEMIWVRKAPGKGMEWVSSISGNGANTYYADSVKGRFTISRDNSKNTLYLQMNSLRPEDTAVYYCAKEPLRFDDWGQGTLVTVSS
180 | – | – | – | BMS3h-43-5 (other) VH: EVQLLESGGGLVQPGGSLRLSCTASGFTFNTYEMSWVRQAPGKGLEWVSGIGRRGFTTYYADSVKGRFTISRDNSKNTLYLQMNSLRAEDTAVYYCAKEPITYDLRYARFDYSGQGTLVTVSS
30 | – | – | – | BMS3h-43-11 (other) VH: EVQLLESGGGLVQPGGSLRLSCTASGFTFNMYEMSWVRKAPGKGLEWVSGISRHGFTTYYADSVKGRFTISRDNSKNTLYLQMNSLRAEDTAVYYCAKEPITYDMRYARFDYWGQGTLVTVSS
0.12 | 11 | 7.25 | 0.93 | BMS3h-56-201 (other) VH: EVQLLESGGGLVQPGGSLRLSCAASGFTFRDYEMWWVRQAPGKGLERVSAINPQGTRTYYADSVKGRFTISRDNSKNTLYLQMNSLRAEDTAVYYCAKLPFYFQEWGQGTLVTVSS
0.2 | 41 | 31 | 11 | BMS3h-56-215 (other) VH: EVQLLESGGGLVQPGGSLRLSCAASGFTFRDYEMWWVRQAPGKGLERVSAINPHGSLTYYADSVKGRFTISRDNSKNTLYLQMNSLRAEDTAVYYCAKLPFTFDDWGQGTLVTVSS
0.11 | 18 | 13.5 | 5.8 | BMS3h-56-239 (other) VH: EVQLLESGGGLVQPGGSLRLSCAASGFTFRDYEMWWVRQAPGKGLERVSAINPWGSLTYYADSVKGRFTISRDNSKNTLYLQMNSLRAEDTAVYYCAKLPFTFDDWGQGTLVTVSS
0.17 | 26 | 21 | 12.6 | BMS3h-56-244 (other) VH: EVQLLESGGGLVQPGGSLRLSCAASGFTFRDYEMWWVRQAPGKGLERVSAINPWGGLTYYADSVKGRFTISRDNSKNTLYLQMNSLRAEDTAVYYCAKLPFTFDDWGQGTLVTVSS
